# Assay results reported in paper PMC3030345 (The Journal of Biological Chemistry, 2010).
# Molecular target: the molecule itself
# Assay: atomic force microscopy
protein,measurement,value
"A3G-H248A/H250A-Myc-His (enzyme, human, UniProt Q9HC16 1-384, looked up) MKPHFRNTVERMYRDTFSYNFYNRPILSRRNTVWLCYEVKTKGPSRPPLDAKIFRGQVYSELKYHPEMRFFHWFSKWRKLHRDQEYEVTWYISWSPCTKCTRDMATFLAEDPKVTLTIFVARLYYFWDPDYQEALRSLCQKRDGPRATMKIMNYDEFQHCWSKFVYSQRELFEPWNNLPKYYILLHIMLGEILRHSMDPPTFTFNFNNEPWVRGRHETYLCYEVERMHNDTWVLLNQRRGFLCNQAPAKAGFLEGRHAELCFLDVIPFWKLDLDQDYRVTCFTSWSPCFSCAQEMAKFISKNKHVSLCIFTARIYDDQGRCQEGLRTLAEAGAKISIMTYSEFKHCWDTFVDHQGCPFQPWDGLDEHSQDLSGRLRAILQNQEN",stoichiometry N,2
